The values below come from patent publication US20250376528A1 (SYNTHEKINE, published 2025).

The chains are these.
T1: extracellular domain of human IL10Rα (amino acids 22-235, UniProtKB Q13651) (human, UniProt Q13651 22-235)
T1 construct: range 22-235; Antigen used for camel immunization and for phage selection; also called hIL-10Rαecd; hIL10-R1
T1 sequence (looked up): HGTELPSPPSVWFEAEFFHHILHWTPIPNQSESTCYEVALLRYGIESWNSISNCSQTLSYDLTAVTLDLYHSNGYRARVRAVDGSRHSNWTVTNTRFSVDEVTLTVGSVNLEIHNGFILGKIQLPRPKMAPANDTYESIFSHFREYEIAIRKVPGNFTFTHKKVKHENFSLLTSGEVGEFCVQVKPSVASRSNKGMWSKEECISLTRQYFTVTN

T2: extracellular domain of human IL10Rβ (amino acids 20-220, UniProtKB Q08334) (human, UniProt Q08334 20-220)
T2 construct: range 20-220; Antigen used for camel immunization and for phage selection; also called hIL-10Rβecd; hIL10-R2
T2 sequence (looked up): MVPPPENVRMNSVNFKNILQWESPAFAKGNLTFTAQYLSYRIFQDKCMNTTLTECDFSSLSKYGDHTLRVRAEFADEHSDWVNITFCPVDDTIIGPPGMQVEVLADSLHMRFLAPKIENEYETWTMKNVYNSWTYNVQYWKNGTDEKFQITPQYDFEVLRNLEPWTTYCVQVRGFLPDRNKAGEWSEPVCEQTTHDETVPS

B1: anti-hIL-10Rαecd VHH SEQ ID NO 46 (VHH)
VHH: QVQLQESGGGSVQAGGSLRLSCAASGYTYSMYCMGWFRQAPGKEREGVAQINSDGSTSYADSVKGRFTISKDNAKNTLYLQMNSLKPEDTAMYYCAADSRVYGGSWYERLCGPYTYEYNYWGQGTQVTVSS
notes: Camel VHH selected by phage display; also called Anti-IL10Rα
B2: anti-hIL-10Rαecd VHH SEQ ID NO 47 (VHH)
VHH: QVQLQESGGGSVQAGGSLRLSCAVSGYAYSTYCMGWFRQAPGKEREGVAAIDSGGSTSYADSVKGRFTISKDNAKNTLYLRMNSLKPEDTAMYYCAAVPPPPDGGSCLFLGPEIKVSKADFRYWGQGTQVTVSS
notes: as for B1
B3: anti-hIL-10Rαecd VHH SEQ ID NO 44 (VHH)
VHH: QVQLQESGGGSVQAGGSLRLSCAASRYLYSIDYMAWFRQSPGKEREPVAVIYTASGATFYPDSVKGRFTISQDNAKMTVYLQMNSLKSEDTAMYYCAAVRKTDSYLFDAQSFTYWGQGTQVTVSS
notes: as for B1
B4: anti-hIL-10Rαecd VHH SEQ ID NO 50 (VHH)
VHH: QVQLQESGGGSVQAGGSLRLSCAASGYSNCSYDMTWYRQAPGKEREFVSAIHSDGSTRYADSVKGRFFISQDNAKNTVYLQMNSLKPEDTAMYYCKTDPLHCRAHGGSWYSVRANYWGQGTQVTVSS
notes: as for B1
B5: anti-hIL-10Rαecd VHH SEQ ID NO 45 (VHH)
VHH: QVQLQESGGGSVQAGGSLRLSCAASRFTYSSYCMGWFRQAPGKEREGVASIDSDGSTSYTDSVKGRFTISKDNAKNTLYLQMNSLKPEDTAMYYCALDLMSTVVPGFCGFLLSAGMDYWGKGTQVTVSS
notes: as for B1
B6: anti-hIL-10Rαecd VHH SEQ ID NO 48 (VHH)
VHH: QVQLQESGGGSVQAGGSLRLSCTVSGYTYSSNCMGWFRQAPGKEREGVATIYTGGGNTYYADSVKGRFTISQDNAKNTVYLQMNNLKPEDTAMYYCAAEPLSRVYGGSCPTPTFDYWGQGTQVTVSS
notes: as for B1
B7: anti-hIL-10Rαecd VHH SEQ ID NO 49 (VHH)
VHH: QVQLQESGGGSVQAGGSLRLSCGASGYTYSSYCMGWFRQVPGKEREGVAVIDSDGSTSYADSVKGRFTISKDNGKNTLYLQMNSLKPEDTAMYYCAADLGHYRPPCGVLYLGMDYWGKGTQVTVSS
notes: as for B1
B8: anti-hIL-10Rβecd VHH SEQ ID NO 56 (VHH)
VHH: QVQLQESGGGSVQAGGSLRLSCAASGYSYSSYCMGWFRQAPGKEREGVATIDSDGMTRYADSVKGRFTISKDNAKNTLYLQMNSLKPEDTAMYYCAAPLYDCDSGAVGRNPPYWGQGTQVTVSS
notes: Camel VHH selected by phage display; also called Anti-IL10Rβ
B9: anti-hIL-10Rβecd VHH SEQ ID NO 52 (VHH)
VHH: QVQLQESGGGSVQAGGSLRLSCAASGYTYSSYCMGWFRQAPGKEREGVAHIDSDGSTSYADSVKGRFTISKDNAKNTLYLQMNSLKPEDTAMYYCAADPIPGPGYCDGGPNKYWGQGTQVTVSS
notes: as for B8
B10: anti-hIL-10Rβecd VHH SEQ ID NO 57 (VHH)
VHH: QVQLQESGGGSVQTGGSLRLSCAASGYTYLRGCMGWFRQAPGKEREGVAVMDVVGDRRSYIDSVKGRFTISRDNAANSVYLQMDNLKPEDTAMYYCTAGPNCVGWRSGLDYWGQGTQVTVSS
notes: as for B8

For one test, the target named is T1, extracellular domain of human IL10Rα …. Briefly: phage display biopanning on the antigen, positive colonies by PE-ELISA. How it is done:
(§1) Library biopanning was conducted to screen candidates against the antigens after library construction. Phage display technology was applied in this procedure. Positive colonies were identified by PE-ELISA.
(§2) Camels were immunized with the extracellular domains of the human IL10Rα (amino acids 22-235, UniProtKB Q13651, hIL-10Rαecd) and IL10Rβ (amino acids 20-220, UniProtKB Q08334, hIL-10Rβecd) weekly for seven weeks and PBMCs harvested on day 52. Phage display libraries were constructed and biopanning conducted as described in Example 1 above. 50 VHH sequences were obtained after selection on hIL10-R1 and 47 VHH sequences were obtained after selection on hIL10-R2. Sequences were clonotyped using germline assignment and CDR3 sequence similarity.
Regarding B1, the binding result is recorded as “binds”. Same read-out and setting: next, B2: “binds”. Still for that read-out and setting: under B3 stands “binds”; under B4, “binds”.

As to B5, the binding result is given as “binds”. For the molecule B6, the binding result was “binds”.

As to B7, the binding result is recorded as “binds”.

The next test concerns the target T2, extracellular domain of human IL10Rβ …. The test is described as above. As to the method: as §1, §2
Consider B8, for which the binding result is “binds”. Still for that read-out and setting: under B9 stands “binds”; under B10, “binds”.
